In paper PMC11329236:

Molecular target: KIR3DL1-Fc (UniProt P43629)
Assay: SPR; Biacore T200; KIR3DL1-Fc coupled to a series S Protein A chip at ~1000 RU; soluble monomers injected at 0-193 uM (wild type) or 0-234 uM (V97S); contact 300 s, dissociation 700 s; 25 C; HBS-EP+ buffer; 1:1 binding model

Sequence of UniProt P43629 (P43629 22-320): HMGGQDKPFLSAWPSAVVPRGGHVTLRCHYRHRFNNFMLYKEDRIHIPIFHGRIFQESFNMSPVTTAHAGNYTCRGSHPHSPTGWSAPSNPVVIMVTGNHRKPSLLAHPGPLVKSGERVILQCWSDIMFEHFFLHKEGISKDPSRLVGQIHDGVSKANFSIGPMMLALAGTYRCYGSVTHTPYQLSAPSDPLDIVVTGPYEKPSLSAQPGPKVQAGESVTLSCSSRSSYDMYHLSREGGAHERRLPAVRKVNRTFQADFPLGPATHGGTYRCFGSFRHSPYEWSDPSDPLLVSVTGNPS

Q: How did the Kd turn out when “soluble HLA-B*5701 V97S mutant monomer in complex with the TW10 peptide (from UniProt P61769 21-119) (peptide-MHC)” was run?
A: 185 µM
